Assay [1] concerns the target C3b (UniProt P01024). Description: SPR; BIAcore S200; C3b (800-1000 RU) on a CM5 chip; FH1-4 variants flowed at 20 to 0.3125 µM, 90 s at 30 µL/min; steady state fit, estimated KD; done once in HBST and once in PBST (PBST shown).
Assay [2] concerns the target C3b:FH complex (C3b with WT FH CCP 1-4) (UniProt P01024).
Assay [3] has as its target C3b with FH CCP 1-4 P26S (UniProt P01024). The assay can be described thus: SPR; TMC building, FH variants: FH1-4 (118-14.75 nM) co-injected with 118 nM inactive (S525A) FI onto C3b (1000 RU, thiol/thioester coupled) CM5 chip; PBST + 1 mM MgCl2, 25°C, 2 min at 30 µl/min. (In general: In SPR one partner is held on a chip, and binding of the other changes the refractive index at the surface.)

In assay [4] the target is C3b with FH CCP 1-4 R166W (UniProt P01024). Described as above.
Chain of C3b with FH CCP 1-4 R166W (P01024 23-667, chain 1 of 3): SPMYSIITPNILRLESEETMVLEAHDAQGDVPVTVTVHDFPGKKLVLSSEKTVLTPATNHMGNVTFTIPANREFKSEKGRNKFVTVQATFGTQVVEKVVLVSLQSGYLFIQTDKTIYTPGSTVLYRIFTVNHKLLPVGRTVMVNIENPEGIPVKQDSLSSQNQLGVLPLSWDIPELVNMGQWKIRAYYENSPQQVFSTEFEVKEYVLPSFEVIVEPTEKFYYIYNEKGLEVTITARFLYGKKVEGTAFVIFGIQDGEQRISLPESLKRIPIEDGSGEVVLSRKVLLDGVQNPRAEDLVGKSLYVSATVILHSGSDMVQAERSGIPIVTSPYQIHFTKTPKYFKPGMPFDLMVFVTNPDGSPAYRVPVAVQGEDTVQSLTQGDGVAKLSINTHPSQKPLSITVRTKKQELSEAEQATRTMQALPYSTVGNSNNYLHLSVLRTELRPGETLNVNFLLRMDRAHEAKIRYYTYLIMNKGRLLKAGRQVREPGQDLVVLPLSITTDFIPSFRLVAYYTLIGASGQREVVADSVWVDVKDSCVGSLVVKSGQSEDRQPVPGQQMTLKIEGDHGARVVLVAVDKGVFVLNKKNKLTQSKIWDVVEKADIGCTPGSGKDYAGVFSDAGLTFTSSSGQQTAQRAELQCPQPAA
Chain of C3b with FH CCP 1-4 R166W (P01024 749-1663, chain 2 of 3): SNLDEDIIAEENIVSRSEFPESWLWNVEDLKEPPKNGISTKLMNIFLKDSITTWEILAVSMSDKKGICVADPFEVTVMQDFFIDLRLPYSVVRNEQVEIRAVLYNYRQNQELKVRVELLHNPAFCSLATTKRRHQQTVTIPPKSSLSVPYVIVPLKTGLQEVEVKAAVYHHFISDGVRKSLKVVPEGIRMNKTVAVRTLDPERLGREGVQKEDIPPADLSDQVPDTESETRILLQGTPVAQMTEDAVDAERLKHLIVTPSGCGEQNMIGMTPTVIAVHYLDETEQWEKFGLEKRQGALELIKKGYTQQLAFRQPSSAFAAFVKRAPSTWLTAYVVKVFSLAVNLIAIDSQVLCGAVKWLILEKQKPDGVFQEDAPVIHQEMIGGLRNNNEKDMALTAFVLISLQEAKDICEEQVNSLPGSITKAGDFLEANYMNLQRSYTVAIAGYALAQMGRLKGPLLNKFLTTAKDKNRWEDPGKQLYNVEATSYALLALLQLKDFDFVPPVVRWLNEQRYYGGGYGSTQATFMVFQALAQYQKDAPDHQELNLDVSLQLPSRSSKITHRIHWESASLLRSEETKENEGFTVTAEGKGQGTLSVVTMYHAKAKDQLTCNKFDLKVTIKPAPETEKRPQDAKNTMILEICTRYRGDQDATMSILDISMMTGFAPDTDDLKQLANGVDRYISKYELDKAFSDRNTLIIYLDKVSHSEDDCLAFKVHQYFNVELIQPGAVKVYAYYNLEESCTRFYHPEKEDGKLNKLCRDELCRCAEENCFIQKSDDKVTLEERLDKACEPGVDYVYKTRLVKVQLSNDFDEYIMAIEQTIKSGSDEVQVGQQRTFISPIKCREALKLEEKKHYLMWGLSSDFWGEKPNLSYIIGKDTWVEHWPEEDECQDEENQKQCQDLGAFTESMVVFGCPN
Chain of C3b with FH CCP 1-4 R166W (P08603 19-1231 R166W, chain 3 of 3, further chain): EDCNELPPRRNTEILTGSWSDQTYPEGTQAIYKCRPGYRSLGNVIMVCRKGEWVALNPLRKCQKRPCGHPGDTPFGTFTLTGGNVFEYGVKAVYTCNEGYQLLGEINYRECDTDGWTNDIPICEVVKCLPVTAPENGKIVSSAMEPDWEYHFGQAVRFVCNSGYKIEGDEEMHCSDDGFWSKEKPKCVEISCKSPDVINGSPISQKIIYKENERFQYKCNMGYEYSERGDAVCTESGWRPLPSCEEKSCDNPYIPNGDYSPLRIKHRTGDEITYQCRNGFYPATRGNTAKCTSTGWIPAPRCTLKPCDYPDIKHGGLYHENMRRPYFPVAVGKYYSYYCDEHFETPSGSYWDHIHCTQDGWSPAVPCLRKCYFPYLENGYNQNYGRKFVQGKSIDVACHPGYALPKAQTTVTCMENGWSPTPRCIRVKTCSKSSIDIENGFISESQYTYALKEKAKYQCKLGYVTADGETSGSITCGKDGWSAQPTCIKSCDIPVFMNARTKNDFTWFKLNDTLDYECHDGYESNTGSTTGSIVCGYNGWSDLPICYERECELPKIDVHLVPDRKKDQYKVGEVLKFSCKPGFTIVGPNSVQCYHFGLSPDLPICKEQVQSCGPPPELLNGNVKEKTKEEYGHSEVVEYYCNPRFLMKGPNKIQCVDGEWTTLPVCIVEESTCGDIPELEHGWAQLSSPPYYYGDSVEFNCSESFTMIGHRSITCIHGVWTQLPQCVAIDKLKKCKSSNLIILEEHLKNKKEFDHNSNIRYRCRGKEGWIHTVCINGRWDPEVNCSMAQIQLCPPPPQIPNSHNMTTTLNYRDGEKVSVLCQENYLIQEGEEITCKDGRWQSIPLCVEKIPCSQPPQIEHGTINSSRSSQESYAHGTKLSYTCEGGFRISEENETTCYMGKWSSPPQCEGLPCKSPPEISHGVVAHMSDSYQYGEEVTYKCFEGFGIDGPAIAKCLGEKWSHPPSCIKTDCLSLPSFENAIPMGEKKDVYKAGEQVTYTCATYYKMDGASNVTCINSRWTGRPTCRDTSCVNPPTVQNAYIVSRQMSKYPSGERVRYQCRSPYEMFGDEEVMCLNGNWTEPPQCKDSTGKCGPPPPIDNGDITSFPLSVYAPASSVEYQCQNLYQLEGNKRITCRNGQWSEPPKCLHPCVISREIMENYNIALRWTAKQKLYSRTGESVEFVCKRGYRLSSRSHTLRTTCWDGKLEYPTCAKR
Assay [5] deals with C3b with FH CCP 1-4 R232Q (UniProt P01024). The description is as above.
Chain of C3b with FH CCP 1-4 R232Q (P01024 23-667, chain 1 of 3): as the sequence (P01024 23-667, chain 1 of 3) above
Chain of C3b with FH CCP 1-4 R232Q (P01024 749-1663, chain 2 of 3): as the sequence (P01024 749-1663, chain 2 of 3) above
Chain of C3b with FH CCP 1-4 R232Q (P08603 19-1231 R232Q, chain 3 of 3, further chain): as the sequence (P08603 19-1231 R166W, chain 3 of 3, further chain) above, with W148R, R214Q counted along it
Assay [6] deals with C3b with FH CCP 1-4 R83S (UniProt P01024). Described as above.
Chain of C3b with FH CCP 1-4 R83S (P01024 23-667, chain 1 of 3): as the sequence (P01024 23-667, chain 1 of 3) above
Chain of C3b with FH CCP 1-4 R83S (P01024 749-1663, chain 2 of 3): as the sequence (P01024 749-1663, chain 2 of 3) above
Chain of C3b with FH CCP 1-4 R83S (P08603 19-1231 R83S, chain 3 of 3, further chain): as the sequence (P08603 19-1231 R166W, chain 3 of 3, further chain) above, with R65S, W148R counted along it
Assay [7] concerns the target C3b with FH CCP 1-4 T91S (UniProt P01024). Described as above.
The target of assay [8] is C3b:FH complex (C3b with WT FH CCP 1-4) (UniProt P01024). The assay is described as above.
Chain of C3b:FH complex (C3b with WT FH CCP 1-4) (P01024 23-667, chain 1 of 3): as the sequence (P01024 23-667, chain 1 of 3) above
Chain of C3b:FH complex (C3b with WT FH CCP 1-4) (P01024 749-1663, chain 2 of 3): as the sequence (P01024 749-1663, chain 2 of 3) above
Chain of C3b:FH complex (C3b with WT FH CCP 1-4) (P08603 19-1231, chain 3 of 3, further chain): as the sequence (P08603 19-1231 R166W, chain 3 of 3, further chain) above, with W148R counted along it
For assay [9], the target named is C3b (UniProt P01024).
Chain of C3b (P01024 23-667, chain 1 of 2): as the sequence (P01024 23-667, chain 1 of 3) above
Chain of C3b (P01024 749-1663, chain 2 of 2): as the sequence (P01024 749-1663, chain 2 of 3) above
Assay [10] has as its target C3b:FH complex (C3b with WT FH CCP 1-4) (UniProt P01024). Description: SPR; TMC building, FI variants: FI variants on the inactive (S525A) backbone (125-15.625 nM; 62.5 nM shown) co-injected with FH1-4 at constant concentration (125 nM in the methods, 118 nM in the legend) onto thioester-coupled C3b (1000 RU); PBST + Mg2+.
The target in assay [11] is C3b (UniProt P01024). The assay can be described thus: SPR; BIAcore S200; C3b (800-1000 RU) on a CM5 chip; FH1-4 variants flowed at 20 to 0.3125 µM, 90 s at 30 µL/min; steady state fit, estimated KD; done once in HBST and once in PBST (PBST shown). The source holds these as a separate data set.
The target of assay [12] is C3b:FH complex (C3b with WT FH CCP 1-4) (UniProt P01024). This is another data set of the same source.

Where two headings read alike, the source gives them in different places.

Broadly, the Kd is the constant that tells how readily two partners part at equilibrium.

Chain of C3b with FH CCP 1-4 T91S (P01024 23-667, chain 1 of 3): as the sequence (P01024 23-667, chain 1 of 3) above
Chain of C3b with FH CCP 1-4 T91S (P01024 749-1663, chain 2 of 3): as the sequence (P01024 749-1663, chain 2 of 3) above
Chain of C3b with FH CCP 1-4 T91S (P08603 19-1231 T91S, chain 3 of 3, further chain): as the sequence (P08603 19-1231 R166W, chain 3 of 3, further chain) above, with T73S, W148R counted along it
Chain of C3b with FH CCP 1-4 P26S (P01024 23-667, chain 1 of 3): as the sequence (P01024 23-667, chain 1 of 3) above
Chain of C3b with FH CCP 1-4 P26S (P01024 749-1663, chain 2 of 3): as the sequence (P01024 749-1663, chain 2 of 3) above
Chain of C3b with FH CCP 1-4 P26S (P08603 19-1231 P26S, chain 3 of 3, further chain): as the sequence (P08603 19-1231 R166W, chain 3 of 3, further chain) above, with P8S, W148R counted along it

On to “FH CCP 1-4 T91S (from UniProt P08603 19-1231) (domain or fragment)”, for which the Kd in assay [1] was 9.4 µM.

“inactive FI (S525A FI) (from UniProt P05156 19-335; P05156 340-583) (enzyme)” showed an inhibition of C3b cleavage by WT FI in a fluid phase CA assay with increasing S525A FI (15% at equimolar, 20% at 2-fold molar) in assay [2] of 20%. Also, the peak RU of the TMC (59 nM FH1-4 with 118 nM S525A FI) is 29 RU in assay [3]; 7 RU in [4]; 6 RU in assay [5]; 5 RU in assay [6]; 30 RU in assay [7]; 40 RU in assay [8]. In addition, the RU of the TMC (118 nM FH1-4 with 118 nM inactive FI) in assay [8] came out at 60 RU.

As to “FH CCP 1-4 R232Q (from UniProt P08603 19-1231) (domain or fragment)”, the fluid phase cofactor activity with FI and C3b: reduction in C3b α’ chain degradation (% reduced compared to WT) in assay [9] was 41.

As to “FI R406H/S525A (from UniProt P05156 19-335; P05156 340-583) (enzyme)”, in assay [10], the RU of the TMC (62.5 nM FI variant with FH1-4) is 74.6 RU and the percent of the response of inactive WT FI amounted to 77%.

Consider “FH CCP 1-4 WT (from UniProt P08603 19-1231) (domain or fragment)”, for which the Kd in assay [1] was 10 µM.

Consider “FH CCP 1-4 R166W (from UniProt P08603 19-1231) (domain or fragment)”, for which the Kd was 16.7 µM in assay [1] and 16 to 20 µM in [11].

On to “FI K441R/S525A (from UniProt P05156 19-335; P05156 340-583) (enzyme)”, for which, in assay [10], the RU of the TMC (62.5 nM FI variant with FH1-4) is 91.2 RU and the percent of the response of inactive WT FI was determined as 94%.

In the case of “FH CCP 1-4 P26S (from UniProt P08603 19-1231) (domain or fragment)”, the Kd in [1] is 11.5 µM.

As for “FI P553S/S525A (from UniProt P05156 19-335; P05156 340-583) (enzyme)”, in assay [10], the RU of the TMC (62.5 nM FI variant with FH1-4) turned out to be 62.9 RU and the percent of the response of inactive WT FI is 65%.

For the substance “H380R FI (from UniProt P05156 19-335; P05156 340-583) (enzyme)”, the inhibition of the activity of WT FI in a fluid phase CA assay with increasing H380R FI (~20% at equimolar, 35% at 2-fold molar) in assay [12] amounted to 35%.

Values taken from publication PMC9832388.
